Molecular target: E. coli 30S initiation complex (30S IC) lacking IF2 and IF3 (E. coli) (UniProt P69222)
Test: FRET or BRET

UniProt P69222, sequence (P69222 whole entry, looked up, one chain of several): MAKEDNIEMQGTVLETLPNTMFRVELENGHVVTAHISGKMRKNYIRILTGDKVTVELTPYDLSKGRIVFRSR

fold change of Kd, IF2 bound to ppGpp relative to IF2 bound to GTP: 10 fold
Substance: Cy5-labeled Initiation Factor 2 (IF2), E. coli (from UniProt P0A705 1-890) (natural protein)

Source: paper doi:10.1101/807917
